Assay results taken from IntAct's records for PubMed 29039417.

B1: BBSome complex member BBS1 (Homo sapiens), Q8NFJ9 (parent)
chain: MAAASSSDSDACGAESNEANSKWLDAHYDPMANIHTFSACLALADLHGDGEYKLVVGDLGPGGQQPRLKVLKGPLVMTESPLPALPAAAATFLMEQHEPRTPALALASGPCVYVYKNLRPYFKFSLPQLPPNPLEQDLWNQAKEDRIDPLTLKEMLESIRETAEEPLSIQSLRFLQLELSEMEAFVNQHKSNSIKRQTVITTMTTLKKNLADEDAVSCLVLGTENKELLVLDPEAFTILAKMSLPSVPVFLEVSGQFDVEFRLAAACRNGNIYILRRDSKHPKYCIELSAQPVGLIRVHKVLVVGSTQDSLHGFTHKGKKLWTVQMPAAILTMNLLEQHSRGLQAVMAGLANGEVRIYRDKALLNVIHTPDAVTSLCFGRYGREDNTLIMTTRGGGLIIKILKRTAVFVEGGSEVGPPPAQAMKLNVPRKTRLYVDQTLREREAGTAMHRAFQTDLYLLRLRAARAYLQALESSLSPLSTTAREPLKLHAVVQGLGPTFKLTLHLQNTSTTRPVLGLLVCFLYNEALYSLPRAFFKVPLLVPGLNYPLETFVESLSNKGISDIIKVLVLREGQSAPLLSAHVNMPGSEGLAAA
partner: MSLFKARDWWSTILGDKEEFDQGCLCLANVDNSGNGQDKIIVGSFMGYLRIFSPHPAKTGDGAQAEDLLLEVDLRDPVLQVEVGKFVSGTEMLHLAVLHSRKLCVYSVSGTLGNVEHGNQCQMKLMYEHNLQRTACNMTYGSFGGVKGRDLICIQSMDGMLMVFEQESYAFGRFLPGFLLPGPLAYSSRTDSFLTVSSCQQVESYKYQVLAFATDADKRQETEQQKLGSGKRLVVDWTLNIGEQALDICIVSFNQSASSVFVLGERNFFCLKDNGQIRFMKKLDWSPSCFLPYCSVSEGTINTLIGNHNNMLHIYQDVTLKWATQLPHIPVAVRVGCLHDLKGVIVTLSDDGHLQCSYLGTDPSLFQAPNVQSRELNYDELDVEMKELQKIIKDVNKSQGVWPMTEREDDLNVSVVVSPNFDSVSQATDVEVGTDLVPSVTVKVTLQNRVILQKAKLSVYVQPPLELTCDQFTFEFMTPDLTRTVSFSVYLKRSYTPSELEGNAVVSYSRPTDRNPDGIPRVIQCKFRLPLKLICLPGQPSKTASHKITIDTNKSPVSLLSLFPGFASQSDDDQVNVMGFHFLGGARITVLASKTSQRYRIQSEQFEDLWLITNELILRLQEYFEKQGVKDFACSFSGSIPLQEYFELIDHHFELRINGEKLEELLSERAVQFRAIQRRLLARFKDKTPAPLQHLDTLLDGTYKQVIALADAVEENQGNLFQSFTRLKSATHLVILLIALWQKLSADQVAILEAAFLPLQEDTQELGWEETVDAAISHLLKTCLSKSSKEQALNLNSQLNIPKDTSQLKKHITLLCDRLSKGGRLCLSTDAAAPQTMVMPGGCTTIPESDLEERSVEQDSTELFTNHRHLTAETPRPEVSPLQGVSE

Variants of: B1
Conditions: with pthb1_human BBS9, Q3SYG4

Row | effect of a mutation on the interaction | Variant
1 | with no effect | T511A
2 | with no effect | T511K
3 | with no effect | T511E
4 | with no effect | A464E
5 | with no effect | A464K
6 | with no effect | V514A
7 | with no effect | V514K
8 | with no effect | V514E
9 | with no effect | S473E
10 | with no effect | S473K
11 | with no effect | S473A
12 | disrupting interaction strength | L471F
13 | with no effect | L471K
14 | with no effect | L471E
15 | with no effect | L471A
16 | with no effect | N507A
17 | with no effect | N507K
18 | disrupting interaction strength | N507E
19 | with no effect | L475A
20 | with no effect | L475E
21 | with no effect | L475K
22 | with no effect | L468K
23 | with no effect | L468A
24 | with no effect | L468E
25 | with no effect | K487A

Row | effect of a mutation on the interaction | Variant
26 | with no effect | K487E
27 | with no effect | H504A
28 | with no effect | H504E
29 | with no effect | H504K
30 | with no effect | T502E
31 | with no effect | T502K
32 | with no effect | T502A
33 | with no effect | S474E
34 | with no effect | S474A
35 | with no effect | S474K
36 | with no effect | L488A
37 | with no effect | L488K
38 | with no effect | L488E
39 | with no effect | P485E
40 | with no effect | P485K
41 | with no effect | P485A
42 | with no effect | V491K
43 | with no effect | V491E
44 | with no effect | V491A
45 | disrupting interaction strength | L501K
46 | disrupting interaction strength | L501E
47 | disrupting interaction strength | L501A
48 | with no effect | L518K
49 | with no effect | L518A
50 | with no effect | L518E

Row | effect of a mutation on the interaction | Variant
51 | disrupting interaction strength | L518P
52 | with no effect | L495A
53 | with no effect | L495K
54 | with no effect | L495E
55 | with no effect | Q506E
56 | with no effect | Q506K
57 | with no effect | Q506A
58 | with no effect | S479A
59 | with no effect | S479K
60 | with no effect | S479E
61 | with no effect | R483K
62 | with no effect | R483A
63 | with no effect | R483E
64 | with no effect | E484K
65 | with no effect | E484A
66 | with no effect | Y467K
67 | with no effect | Y467A
68 | with no effect | Y467E
69 | with no effect | Q493K
70 | with no effect | Q493A
71 | with no effect | Q493E
72 | with no effect | R465E
73 | with no effect | R465A
74 | with no effect | R465K
75 | disrupting interaction strength | F499E

Row | effect of a mutation on the interaction | Variant
76 | with no effect | F499K
77 | with no effect | F499A
78 | with no effect | A470E
79 | with no effect | A470K
80 | with no effect | K500E
81 | with no effect | K500A
82 | with no effect | L486A
83 | disrupting interaction strength | L486K
84 | disrupting interaction strength | L486E
85 | with no effect | A482K
86 | with no effect | A482E
87 | with no effect | P477E
88 | with no effect | P477K
89 | with no effect | P477A
90 | disrupting interaction strength | A463K
91 | disrupting interaction strength | A463E
92 | with no effect | R512E
93 | with no effect | R512A
94 | with no effect | R512K
95 | with no effect | P513A
96 | with no effect | P513E
97 | with no effect | P513K
98 | disrupting interaction strength | L517K
99 | with no effect | L517A
100 | disrupting interaction strength | L517E

Row | effect of a mutation on the interaction | Variant
101 | with no effect | T498E
102 | with no effect | T498A
103 | with no effect | T498K
104 | with no effect | S476A
105 | with no effect | S476E
106 | with no effect | S476K
107 | with no effect | H489K
108 | with no effect | H489A
109 | with no effect | H489E
110 | with no effect | P497A
111 | with no effect | P497E
112 | with no effect | P497K
113 | with no effect | G496A
114 | with no effect | G496E
115 | with no effect | G496K
116 | with no effect | L478A
117 | with no effect | L478E
118 | with no effect | L478K
119 | with no effect | L515A
120 | with no effect | L515K
121 | with no effect | L515E
122 | with no effect | E472A
123 | with no effect | E472K
124 | with no effect | A490E
125 | with no effect | A490K

Row | effect of a mutation on the interaction | Variant
126 | with no effect | T480A
127 | with no effect | T480K
128 | with no effect | T480E
129 | with no effect | R462E
130 | with no effect | R462K
131 | with no effect | R462A
132 | with no effect | T510E
133 | with no effect | T510K
134 | with no effect | T510A
135 | with no effect | G516E
136 | with no effect | G516K
137 | disrupting interaction strength | G516A
138 | with no effect | Q469K
139 | with no effect | Q469E
140 | with no effect | Q469A
141 | with no effect | T481K
142 | with no effect | T481A
143 | with no effect | T481E
144 | disrupting interaction strength | L503E
145 | disrupting interaction strength | L503K
146 | with no effect | L503A
147 | disrupting interaction strength | F521K
148 | disrupting interaction strength | F521E
149 | with no effect | F521A
150 | with no effect | L505A

Row | effect of a mutation on the interaction | Variant
151 | disrupting interaction strength | L505P
152 | disrupting interaction strength | L505K
153 | disrupting interaction strength | L505E
154 | with no effect | C520K
155 | with no effect | C520A
156 | with no effect | C520E
157 | with no effect | S509E
158 | disrupting interaction strength | S509L
159 | with no effect | S509K
160 | with no effect | S509A
161 | with no effect | A466K
162 | with no effect | A466E
163 | with no effect | G494E
164 | with no effect | G494A
165 | with no effect | G494K
166 | with no effect | L461K
167 | with no effect | V492E
168 | with no effect | V492K
169 | with no effect | V492A
170 | with no effect | T508A
171 | with no effect | T508E
172 | with no effect | T508K
173 | with no effect | V519A
174 | disrupting interaction strength | V519E
175 | disrupting interaction strength | V519K

Variants of: B1
Conditions: with pthb1_human BBS9, Q3SYG4
Remark: another data set of the same source

Row | effect of a mutation on the interaction | Variant
176 | with no effect | N507E
